Starred links: 1 amine or outer side, 2 acyl side, 3 side chain; linkers in the order of their positions; H or OH if unused. Positions of bridges follow the written chain, without caps; N, C: chain ends. Non-standard residues stand in square brackets, D forms with d. Primed or numbered codes have the meaning given here. B5(11) = 2,2-bis(4-pentenyl)glycine = 2-amino-2-(pent-4-en-1-yl)hept-6-enoic acid (stitching residue, bears both staples), C=CCCCC(CCCC=C)(N[*:1])C(=O)[*:2]; PyrS2(3) = (S)-3-amino-1-((pent-4-en-1-yloxy)carbonyl)pyrrolidine-3-carboxylic acid, stapling residue, C=CCCCOC(=O)N1CC[C@@](N[*:1])(C(=O)[*:2])C1; B5(18) = 2,2-bis(4-pentenyl)glycine (2-amino-2-(pent-4-en-1-yl)hept-6-enoic acid), stitching residue, C=CCCCC(CCCC=C)(N[*:1])C(=O)[*:2]; B5(4) = 2,2-bis(4-pentenyl)glycine = 2-amino-2-(pent-4-en-1-yl)hept-6-enoic acid (stitching residue), C=CCCCC(CCCC=C)(N[*:1])C(=O)[*:2]; TfeGA = (S)-2-amino-3-((carboxymethyl)(2,2,2-trifluoroethyl)amino)propanoic acid, O=C([C@H](CN(CC(=O)[*:3])CC(F)(F)F)N[*:1])[*:2]; TriAzDap = Dap whose side chain is a 1H-1,2,3-triazol-1-yl bearing the bracketed 4-substituent; B5(28) = 2,2-bis(4-pentenyl)glycine, C=CCCCC(CCCC=C)(N[*:1])C(=O)[*:2]; Phe(3-COOH) = N[C@@H](Cc1cccc(C(=O)O)c1)C(=O)O; Phe(2-Cl) = N[C@@H](Cc1ccccc1Cl)C(=O)O; Bta = N[C@@H](Cc1csc2ccccc12)C(=O)O; αAllylPro = C=CC[C@@]1(C(=O)O)CCCN1; NMeH = CN[C@@H](Cc1c[nH]cn1)C(=O)O; tBuAla = CC(C)(C)C[C@H](N)C(=O)O; 3Thi = N[C@@H](Cc1ccsc1)C(=O)O; S8 = C=CCCCCCC[C@](C)(N)C(=O)O; NMeS = CN[C@@H](CO)C(=O)O
T1: B-cat-Halo (beta-catenin HaloTag construct expressed in HEK293 cells) (UniProt P35222 1-781)
T1 sequence (looked up): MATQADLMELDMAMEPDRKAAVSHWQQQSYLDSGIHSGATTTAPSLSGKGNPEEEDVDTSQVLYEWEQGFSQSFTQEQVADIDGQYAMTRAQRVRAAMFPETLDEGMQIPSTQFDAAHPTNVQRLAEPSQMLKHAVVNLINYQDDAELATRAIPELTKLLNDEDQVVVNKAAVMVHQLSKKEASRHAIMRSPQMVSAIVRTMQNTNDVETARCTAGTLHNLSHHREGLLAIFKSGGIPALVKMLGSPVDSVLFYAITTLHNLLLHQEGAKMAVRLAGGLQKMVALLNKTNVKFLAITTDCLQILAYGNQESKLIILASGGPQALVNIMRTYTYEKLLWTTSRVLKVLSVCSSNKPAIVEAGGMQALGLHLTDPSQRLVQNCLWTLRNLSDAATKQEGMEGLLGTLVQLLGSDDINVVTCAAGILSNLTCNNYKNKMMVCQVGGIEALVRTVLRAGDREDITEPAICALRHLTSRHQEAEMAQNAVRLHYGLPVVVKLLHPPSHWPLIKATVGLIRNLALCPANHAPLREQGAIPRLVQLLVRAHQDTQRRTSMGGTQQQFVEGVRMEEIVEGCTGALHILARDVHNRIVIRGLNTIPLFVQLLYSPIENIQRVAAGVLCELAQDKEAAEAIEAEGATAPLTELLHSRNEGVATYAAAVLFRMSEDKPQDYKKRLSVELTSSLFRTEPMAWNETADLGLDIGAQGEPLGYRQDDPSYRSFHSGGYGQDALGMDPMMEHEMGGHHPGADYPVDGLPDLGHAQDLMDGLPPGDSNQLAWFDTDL

T2: full-length beta-Catenin (Uniprot ID P35222) (Homo sapiens (Human), UniProt P35222 2-781)
T2 construct: Also used here for the endogenous beta-catenin of the DLD1 TCF reporter cells; also called bCat; B-Catenin
T2 sequence: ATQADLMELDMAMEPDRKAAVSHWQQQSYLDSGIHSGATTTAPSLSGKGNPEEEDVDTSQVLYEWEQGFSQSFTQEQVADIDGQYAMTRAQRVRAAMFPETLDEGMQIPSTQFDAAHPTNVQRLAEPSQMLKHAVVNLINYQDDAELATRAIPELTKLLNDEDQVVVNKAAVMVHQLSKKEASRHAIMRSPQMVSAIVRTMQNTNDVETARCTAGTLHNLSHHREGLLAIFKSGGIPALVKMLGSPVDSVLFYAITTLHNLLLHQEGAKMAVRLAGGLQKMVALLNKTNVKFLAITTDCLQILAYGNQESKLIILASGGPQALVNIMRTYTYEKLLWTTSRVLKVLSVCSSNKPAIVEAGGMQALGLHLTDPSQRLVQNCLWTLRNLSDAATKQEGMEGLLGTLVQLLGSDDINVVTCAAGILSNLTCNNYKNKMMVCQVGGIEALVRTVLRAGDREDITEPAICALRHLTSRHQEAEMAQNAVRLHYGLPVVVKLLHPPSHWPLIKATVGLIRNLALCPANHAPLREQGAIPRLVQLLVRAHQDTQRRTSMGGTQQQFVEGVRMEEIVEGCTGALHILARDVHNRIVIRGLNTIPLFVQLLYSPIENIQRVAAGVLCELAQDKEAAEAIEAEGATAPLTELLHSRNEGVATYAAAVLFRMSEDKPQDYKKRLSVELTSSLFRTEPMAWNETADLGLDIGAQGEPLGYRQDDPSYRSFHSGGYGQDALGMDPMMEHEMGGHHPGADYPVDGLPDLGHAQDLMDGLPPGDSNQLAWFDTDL

B1: I-748 (peptide)
peptide: XDLXDEAAFNXFXT
modifications: not fully specified; as printed: Ac-PL3-Asp-Leu-B5-Asp-Glu-Ala-Ala-Phe-Asn-S8-Phe-BztA-Thr-NH2; N-terminal Ac, C-terminal NH2; stapled by olefin metathesis PL3(1)-B5(4) and B5(4)-S8(11)
notes: Stapled peptide composition
B2: I-749 (peptide)
peptide: XDLXDEAAFNXFXT
modifications: not fully specified; as printed: Ac-PL3-Asp-Leu-B5-Asp-Glu-Ala-Ala-Phe-Asn-S8-Phe-BztA-Thr-NH2; N-terminal Ac, C-terminal NH2; stapled by olefin metathesis PL3(1)-B5(4) and B5(4)-S8(11)
notes: Stapled peptide composition

Target: T1, B-cat-Halo (beta-catenin HaloTag …)
Assay: cell-based or functional assay

With Ac-[αAllylPro]D[tBuAla][B5(18)]D[Phe(3-COOH)]AAFL[PyrS2(3)][Phe(2-Cl)][Bta]A-NH2 (staple 1-4, 4-11) [I-1851] as the binder, how does the “NanoBRET Abs IC50” value read?
Its value is 3800 nM.

With Ac-[αAllylPro]D[tBuAla][B5(18)]D[Phe(3-COOH)]AAFL[PyrS2(3)][Phe(2-Cl)][Bta]-NH2 (staple 1-4, 4-11) [I-1852] as the binder, how does the “NanoBRET Abs IC50” value read?
Its value is 4900 nM.

With Ac-[αAllylPro]N[tBuAla][B5(18)]D[Phe(3-COOH)]AAFL[PyrS2(3)][Phe(2-Cl)][Bta]S-NH2 (staple 1-4, 4-11) [I-1853] as the binder, how does the “NanoBRET Abs IC50” value read?
The value was 16300 nM.

With Ac-[αAllylPro]D[tBuAla][B5(18)]D[TfeGA]AAF[TriAzDap](CH2NMe2)[PyrS2(3)][3Thi][Bta]Q-NH2 (staple 1-4, 4-11; not fully specified) [I-1861] as the binder, how does the “NanoBRET Abs IC50” value read?
The value was 37300 nM.

For Ac-[αAllylPro]D[tBuAla][B5(18)]D[TfeGA]AAF[TriAzDap](CH2NMe2)[PyrS2(3)][3Thi][Bta]Q-NH2 (staple 1-4, 4-11; not fully specified) [I-1862], which “NanoBRET Abs IC50” value is on record?
Its value is 19300 nM.

Target: T2, full-length beta-Catenin (Uniprot ID …)
Assay: fluorescence polarization competition; full-length beta-catenin, competitor 5FAM-TCF4(10-53) probe
Summary of the method: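 Incubate 60 minutes at 20° C. away from light, then read polarization in duplicate. Fit to 1:1 binding with hill slope.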

Ac-[αAllylPro]DL[B5(4)]DEAAFN[S8]F[Bta]S-NH2 (staple 1-4, 4-11; also: olefin E/Z not assigned, earlier-eluting staple isomer, Stapled peptide composition) [I-750] was tested. Which EC50 did it give?
The EC50 was 43 nM.

How did the EC50 turn out when Ac-[αAllylPro]DL[B5(11)]DEAAFN[S8]F[Bta][NMeH]-NH2 (staple 1-4, 4-11; not fully specified, Stapled peptide composition) [I-747] was run?
The EC50 was 2390 nM.

How did the EC50 turn out when B1 was run?
The EC50 was 54 nM.

How did the EC50 turn out when B2 was run?
Its EC50 is 40 nM.

Which EC50 does the source give for Ac-[αAllylPro]DL[B5(4)]DEAAFN[S8]F[Bta][dT]-NH2 (staple 1-4, 4-11; also: earlier-eluting HPLC peak (staple isomer), Stapled peptide composition) [I-754] here?
Its EC50 is 115 nM.

How did the EC50 turn out when Ac-[αAllylPro]DL[B5(4)]DEAAFN[S8]F[Bta][dT]-NH2 (staple 1-4, 4-11; also: later-eluting HPLC peak (staple isomer), Stapled peptide composition) [I-755] was run?
Its EC50 is 88 nM.

With Ac-[αAllylPro]DL[B5(4)]DEAAFN[S8]F[Bta][dN]-NH2 (staple 1-4, 4-11; also: earlier-eluting HPLC peak (staple isomer), Stapled peptide composition) [I-757] as the binder, how does the EC50 read?
The EC50 was 64 nM.

Ac-[αAllylPro]DL[B5(4)]DEAAFN[S8]F[Bta][dN]-NH2 (staple 1-4, 4-11; also: later-eluting HPLC peak (staple isomer), Stapled peptide composition) [I-758] was tested. Which EC50 did it give?
Its EC50 is 47 nM.

For Ac-[αAllylPro]DL[B5(28)]DEAAFN[S8]F[Bta]S-NH2 (staple 1-4, 4-11, Stapled peptide composition) [I-751], which EC50 is on record?
Its EC50 is 29 nM.

Which EC50 does the source give for Ac-[αAllylPro]DL[B5(4)]DEAAFN[S8]F[Bta][dS]-NH2 (staple 1-4, 4-11, Stapled peptide composition) [I-756] here?
The EC50 was 56 nM.

For Ac-[αAllylPro]DL[B5(4)]DEAAFN[S8]F[Bta][NMeS]-NH2 (staple 1-4, 4-11; also: earlier-eluting HPLC peak (staple isomer), Stapled peptide composition) [I-759], which EC50 is on record?
Its EC50 is 1530 nM.

Reference: patent publication US20240116985A1 (published 2024)
